Laboratory results taken from paper PMC10870365, “Dissection of protein and RNA regions required for SPEN binding to XIST A-repeat RNA”.
Changes are numbered by the printed parent chain.

Experiments:
[1] = molecular target: T1, SPEN RRM 1-4 (Homo sapiens) (UniProt Q96T58); assay: EMSA; details: EMSA: 20 mM Tris-HCl pH 7.5, 150 mM KCl, 5 mM MgCl2, 10% glycerol, room temperature 30 min, 2 nM each labeled RNA (multiplexed), 4.5% TBE native gel
T1 sequence: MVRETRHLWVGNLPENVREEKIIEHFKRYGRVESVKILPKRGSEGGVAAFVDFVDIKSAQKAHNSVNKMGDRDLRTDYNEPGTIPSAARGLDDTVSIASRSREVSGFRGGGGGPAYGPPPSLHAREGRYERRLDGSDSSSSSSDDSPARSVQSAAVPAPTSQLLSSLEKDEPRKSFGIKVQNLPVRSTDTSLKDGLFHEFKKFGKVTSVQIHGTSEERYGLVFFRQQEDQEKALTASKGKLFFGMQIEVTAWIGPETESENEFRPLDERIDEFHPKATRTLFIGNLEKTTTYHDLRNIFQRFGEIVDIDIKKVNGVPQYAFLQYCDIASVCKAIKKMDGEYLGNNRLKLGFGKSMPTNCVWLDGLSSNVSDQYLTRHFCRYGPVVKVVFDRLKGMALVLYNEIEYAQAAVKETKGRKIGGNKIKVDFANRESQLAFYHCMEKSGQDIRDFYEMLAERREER

[2] = molecular target: T2, SPEN RRM 2-4 (Homo sapiens) (UniProt Q96T58); assay: EMSA; details: EMSA: 20 mM Tris-HCl pH 7.5, 150 mM KCl, 5 mM MgCl2, 10% glycerol, room temperature 30 min, 2 nM each labeled RNA (multiplexed), 4.5% TBE native gel
T2 sequence: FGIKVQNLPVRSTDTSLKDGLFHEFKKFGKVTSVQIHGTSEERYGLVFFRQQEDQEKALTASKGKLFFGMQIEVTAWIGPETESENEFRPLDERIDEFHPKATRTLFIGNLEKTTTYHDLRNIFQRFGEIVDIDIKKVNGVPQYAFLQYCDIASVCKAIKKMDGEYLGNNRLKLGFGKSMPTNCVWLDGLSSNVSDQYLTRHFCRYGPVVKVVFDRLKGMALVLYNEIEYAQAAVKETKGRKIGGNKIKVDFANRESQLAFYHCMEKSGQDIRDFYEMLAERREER

[3] = molecular target: T3, SPEN RRM 2-4 mut3 F282A;K311A;Y319A;F321A;K353A (Homo sapiens) (UniProt Q96T58); assay: EMSA; details: EMSA: 20 mM Tris-HCl pH 7.5, 150 mM KCl, 5 mM MgCl2, 10% glycerol, room temperature 30 min, 2 nM each labeled RNA (multiplexed), 4.5% TBE native gel
T3 sequence: T2 sequence with F107A, K136A, Y144A, F146A, K178A

SPEN RRM 1-4 [4] = molecular target: T4, SPEN RRM 1-4 (Homo sapiens, UniProt Q96T58); assay: EMSA; Hill 1; EMSA: 20 mM Tris-HCl pH 7.5, 150 mM KCl, 5 mM MgCl2, 10% glycerol, room temperature 30 min, 2 nM each labeled RNA (multiplexed), 4.5% TBE native gel; details: protein: recombinant, tags: 6xHis-MBP-TEV at N-terminus, removed by TEV cleavage
T4 sequence: T1 sequence

SPEN RRM 1-4 [5] = molecular target: T4, SPEN RRM 1-4; assay: EMSA; Hill 2; EMSA: 20 mM Tris-HCl pH 7.5, 150 mM KCl, 5 mM MgCl2, 10% glycerol, room temperature 30 min, 2 nM each labeled RNA (multiplexed), 4.5% TBE native gel; details: protein: recombinant; tags: 6xHis-MBP-TEV at N-terminus, removed by TEV cleavage; label: internal fluorophore-UTP
SPEN RRM 2-4 = molecular target: T5, SPEN RRM 2-4 (Homo sapiens, UniProt Q96T58); assay: EMSA; Hill 10; EMSA: 20 mM Tris-HCl pH 7.5, 150 mM KCl, 5 mM MgCl2, 10% glycerol, room temperature 30 min, 2 nM each labeled RNA (multiplexed), 4.5% TBE native gel; details: protein: recombinant; tags: 6xHis-MBP-TEV at N-terminus, removed by TEV cleavage; label: internal Cy3-, Cy5- or fluorescein-UTP
T5 sequence: T2 sequence

SPEN RRM 2-4 mut3 = molecular target: T6, SPEN RRM 2-4 mut3 (Homo sapiens, UniProt Q96T58, F282A;K311A;Y319A;F321A;K353A); assay: EMSA; Hill 2; text: loss of binding (Kd >1000 nM); EMSA: 20 mM Tris-HCl pH 7.5, 150 mM KCl, 5 mM MgCl2, 10% glycerol, room temperature 30 min, 2 nM each labeled RNA (multiplexed), 4.5% TBE native gel; details: protein: recombinant; tags: 6xHis-MBP-TEV at N-terminus, removed by TEV cleavage; label: internal Cy3-, Cy5- or fluorescein-UTP
T6 sequence: T2 sequence with F107A, K136A, Y144A, F146A, K178A

SPEN RRM 1-4 [6] = molecular target: T4, SPEN RRM 1-4; assay: EMSA; Hill 5; EMSA: 20 mM Tris-HCl pH 7.5, 150 mM KCl, 5 mM MgCl2, 10% glycerol, room temperature 30 min, 2 nM each labeled RNA (multiplexed), 4.5% TBE native gel; details: protein: recombinant; tags: 6xHis-MBP-TEV at N-terminus, removed by TEV cleavage; label: internal fluorophore-UTP
[7] = label: internal fluorophore-UTP

**Q.** With “GCGAGGAGCCUUUCAUCCGAAGGCGGGACGAUGCCGGAUAAUCGGCAGCCGAGGAACCGGCAGCCGAGGAUCCGCUCCGGGAACGAGCCUCGUUCCGCGCCCGCCAUGGAACCGGAUGGUCGCGGUGCCUGGGCCCACAGUCGCGCCGCGCUCGACCGCCUGGAGAAGCUGCUGCGCUGCUCGCGUUGUACUAACAUUCUGAGAGAGCCUGUGUGUUUAGGAGGAA [BARD1 mRNA fragment]” as the molecule, how does the Kd [1] read?
**A.** The Kd was 210 nM.

**Q.** With “GGGCUGCGGAUACCUGGUUUUAUUAUUUUUUCUUUGCCCAACGGGGCCGUGGAUACCUGCCUUUUAAUUCUUUUUUAUUCGCCCAUCGGGGCCGCGGAUACCUGCUUUUUAUUUUUUUUUCCUUAGCCCAUCGGGGUAUCGGAUACCUGCUGAUUCCCUUCCCCUCUGAACCCCCAACACUCUGGCCCAUCGGGGUGACGGAUAUCUGCUUUUUAAAAAUUUUCUUUUUUUGGCCCAUCGGGGCUUCGGAUACCUGCUUUUUUUUUUUUUAUUUUUCCUUGCCCAUCGGGGCCUCGGAUACCUGCUUUAAUUUUUGUUUUUCUGGCCCAUCGGGGCCGCGGAUACCUGCUUUGAUUUUUUUUUUUCAUCGCCCAUCGGUGCU [XIST A-full]” as the molecule, how does the Kd [1] read?
**A.** Its Kd is 100 nM.

**Q.** What about the Kd [2] of the same molecule?
**A.** Its Kd is 120 nM.

**Q.** What about the Kd [3] of the same molecule?
**A.** The Kd was 230 nM.

**Q.** What does the source list for “GUACCAGGUAUGUGAUGACAUCAGCCGACGCCUGGCACUGCUGCAGGAACAGUGGGCUGGAGGAAAGUUGUCAAUACCUGUAAAGAAGAGAAUGGCUCUACUGGUGCAAGAGCUUUCAAGCCACCGGUGGGACGCAGCAGAUGACAUCCACCGCUCCCUCAUGGUUGACCAUGUGACUGAGGUCAGUCAGUGGAUGGUAGGAGUUAAAAGAUUAAUUGCAGAAAAGAGGAGUCUGUUUUCAGAGGAGGCAGCCAAUGAAGAGAAAUCUGCAGCCACAGCUGAGAAGAACCAUACCAUACCAGGCUUCCAGCAGGCUUCAUAAUCCUCGGUUCCCCAGACUCACCGGACACCAUCUCCU [SRA]”?
**A.** Kd [1]: 100 nM; Kd [2]: 300 nM; Kd [3]: 950 nM

B1: XIST A1-4 (structured_RNA)
RNA: GCUGCGGAUACCUGGUUUUAUUAUUUUUUCUUUGCCCAACGGGGCCGUGGAUACCUGCCUUUUAAUUCUUUUUUAUUCGCCCAUCGGGGCCGCGGAUACCUGCUUUUUAUUUUUUUUUCCUUAGCCCAUCGGGGUAUCGGAUACCUGCUGAUUCCCUUCCCCUCUGAACCCCCAACACUCUGGCCCAUCG
**Q.** B1 was tested. Which Kd (SPEN RRM 1-4 [4]; [7]) did it give?
**A.** Its Kd is 71 ± 4 nM.

B2: XIST A4-6 (structured_RNA)
RNA: GCCGCGGAUACCUGCUUUUUAUUUUUUUUUCCUUAGCCCAUCGGGGUAUCGGAUACCUGCUGAUUCCCUUCCCCUCUGAACCCCCAACACUCUGGCCCAUCGGGGUGACGGAUAUCUGCUUUUUAAAAAUUUUCUUUUUUUGGCCCAUCGGGGCUUCGGAUACCUGCUUUUUUUUUUUUUAUUUUUCCUUGCCCAUCGGGG
**Q.** B2 was tested. Which Kd (SPEN RRM 1-4 [5]) did it give?
**A.** The Kd was 132 ± 10 nM.

B3: XIST A6-9+ (structured_RNA)
RNA: GGCUUCGGAUACCUGCUUUUUUUUUUUUUAUUUUUCCUUGCCCAUCGGGGCCUCGGAUACCUGCUUUAAUUUUUGUUUUUCUGGCCCAUCGGGGCCGCGGAUACCUGCUUUGAUUUUUUUUUUUCAUCGCCCAUCGGUGCUUUUUAUGGAUGAAAAAAUGUUGGUUUUGUGGGUUGUUGCACUCUCUGGAAUAUCUACACUUUUUUUUGCUGCUGAUCAUUUGGUGG
**Q.** B3 was tested. Which Kd (SPEN RRM 1-4 [4]; label: internal fluorophore-UTP (EMSA)) did it give?
**A.** Its Kd is 48 ± 5 nM.

B4: XIST A6-8 (trimer) (structured_RNA)
RNA: GGCCCAUCGGGGCUUCGGAUACCUGCUUUUUUUUUUUUUAUUUUUCCUUGCCCAUCGGGGCCUCGGAUACCUGCUUUAAUUUUUGUUUUUCUGGCCCAUCGGGGCCGCGGAUACCUGCUU
**Q.** How did the Kd (SPEN RRM 1-4 [4]; [7]) turn out when B4 was run?
**A.** The Kd was 288 ± 39 nM.

B5: XIST A7-8 (dimer) (structured_RNA)
RNA: GUUGCCCAUCGGGGCCUCGGAUACCUGCUUUAAUUUUUGUUUUUCUGGCCCAUCGGGGCCGCGGAUACCUGCUU
**Q.** With B5 as the molecule, how does the Kd (SPEN RRM 1-4 [4]; [7]) read?
**A.** The Kd was 248 ± 68 nM.

B6: BARD1 mRNA fragment (structured_RNA)
RNA: GCGAGGAGCCUUUCAUCCGAAGGCGGGACGAUGCCGGAUAAUCGGCAGCCGAGGAACCGGCAGCCGAGGAUCCGCUCCGGGAACGAGCCUCGUUCCGCGCCCGCCAUGGAACCGGAUGGUCGCGGUGCCUGGGCCCACAGUCGCGCCGCGCUCGACCGCCUGGAGAAGCUGCUGCGCUGCUCGCGUUGUACUAACAUUCUGAGAGAGCCUGUGUGUUUAGGAGGAA
**Q.** With B6 as the molecule, how does the Kd (SPEN RRM 2-4) read?
**A.** The Kd was 550 ± 30 nM.

**Q.** What about the Kd (SPEN RRM 2-4 mut3) of the same molecule?
**A.** The Kd was 2300 ± 500 nM.

B7: XIST A5-8 (structured_RNA)
RNA: GCCCAUCGGGGUGACGGAUAUCUGCUUUUUAAAAAUUUUCUUUUUUUGGCCCAUCGGGGCUUCGGAUACCUGCUUUUUUUUUUUUUAUUUUUCCUUGCCCAUCGGGGCCUCGGAUACCUGCUUUAAUUUUUGUUUUUCUGGCCCAUCGGGGCCGCGGAUACCUGCUU
**Q.** B7 was tested. Which Kd (SPEN RRM 1-4 [6]) did it give?
**A.** The Kd was 127 ± 4 nM.

B8: tRNA-Cys (structured_RNA)
RNA: GGGGGUAUAGCUCAGGGGUAGAGCAUUUGACUGCAAAUCAAGAGGUCCCUGAUUCAAAUCCAGGUGCCCCCUCCAAGCUUG
**Q.** How did the Kd (SPEN RRM 1-4 [4]; [7]) turn out when B8 was run?
**A.** The Kd was 245 ± 78 nM.

B9: XIST A6-9 (structured_RNA)
RNA: GGCUUCGGAUACCUGCUUUUUUUUUUUUUAUUUUUCCUUGCCCAUCGGGGCCUCGGAUACCUGCUUUAAUUUUUGUUUUUCUGGCCCAUCGGGGCCGCGGAUACCUGCUUUGAUUUUUUUUUUUCAUCGCCCAUCGGUGCU
**Q.** How did the Kd (SPEN RRM 1-4 [5]) turn out when B9 was run?
**A.** The Kd was 185 ± 9 nM.
